Results as given in patent publication US20150037333A1 (NEXVET AUSTRALIA, published 2015).

Assays:
[1] = molecular target: T1, complement C1q (from normal human serum) (human, UniProt P02745 23-245; P02746 28-253; P02747 29-245); experiment: C1q binding ELISA; fusion protein on plates coated with canine TNF (4 µg/ml), human serum as source of complement
T1 construct: Native C1q in normal human serum, detected with a C1q reactive polyclonal antibody-HRP conjugate
Method: The canine TNFR-HCB, canine TNFR-HCC and human TNFR-canine HCB fusion proteins were incubated with plates pre-coated with canine TNF (4 μg/ml). For comparison, a caninised monoclonal antibody (MAb, canine isotype HCB) with specificity to nerve growth factor (NGF) was incubated with plates coated with NGF. The plates were washed and incubated with normal or heat-killed human serum as a source of complement. Binding of complement C1q was detected using a C1q reactive polyclonal antibody-HRP conjugate.

[2] = molecular target: canine TNF-alpha (canine, UniProt P51742 77-233); experiment: cell-based or functional assay
Sequence of canine TNF-alpha (P51742 77-233 limits assumed): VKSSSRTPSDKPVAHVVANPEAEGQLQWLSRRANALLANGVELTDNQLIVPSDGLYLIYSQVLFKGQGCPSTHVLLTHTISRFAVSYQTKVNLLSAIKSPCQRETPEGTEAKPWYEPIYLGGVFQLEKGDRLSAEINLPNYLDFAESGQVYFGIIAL

T1 sequence (P02745 23-245 limits assumed, chain 1 of 3): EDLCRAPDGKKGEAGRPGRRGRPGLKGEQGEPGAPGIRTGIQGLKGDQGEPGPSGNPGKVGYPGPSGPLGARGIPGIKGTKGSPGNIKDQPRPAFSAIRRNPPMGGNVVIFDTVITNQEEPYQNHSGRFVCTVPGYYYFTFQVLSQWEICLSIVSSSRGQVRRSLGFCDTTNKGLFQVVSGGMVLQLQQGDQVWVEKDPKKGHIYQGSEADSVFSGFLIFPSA
T1 sequence (P02746 28-253 limits assumed, chain 2 of 3): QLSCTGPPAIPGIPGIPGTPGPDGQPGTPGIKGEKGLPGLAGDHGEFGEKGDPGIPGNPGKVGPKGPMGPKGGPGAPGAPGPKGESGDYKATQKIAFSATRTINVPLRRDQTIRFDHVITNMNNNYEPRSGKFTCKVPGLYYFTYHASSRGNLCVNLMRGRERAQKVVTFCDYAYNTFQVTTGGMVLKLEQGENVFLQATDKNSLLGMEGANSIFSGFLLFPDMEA
T1 sequence (P02747 29-245 limits assumed, chain 3 of 3): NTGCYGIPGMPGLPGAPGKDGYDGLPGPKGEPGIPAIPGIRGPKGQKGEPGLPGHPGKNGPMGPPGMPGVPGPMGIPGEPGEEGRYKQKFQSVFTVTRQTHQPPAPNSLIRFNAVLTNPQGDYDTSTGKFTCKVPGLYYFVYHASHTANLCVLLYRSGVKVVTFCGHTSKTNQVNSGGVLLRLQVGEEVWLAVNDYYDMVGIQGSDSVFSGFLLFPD

| Binder | binding result [1] | inhibition of canine TNF-alpha bioactivity (1 ng/ml) in 293-HEK cells with NF-kB-EGFP reporter construct pTRH1; IC50 [2] |
| --- | --- | --- |
| canine TNFR-HCB (caTNFRp50:ca IgGHCB Fc), SEQ ID NO:7 (Fc fusion, Expressed in CHO cells; also called caTNFrecp60-HCB; canine TNFR-HCB fusion protein) LVPHPRNRVKRAILCPQGKYIHPQDDSICCTKCHKGTYLYNDCPGPGLDTDCRECENGTFTASENHLRQCLSCSKCRKEMNQVEISPCTVYRDTVCGCRKNQYRFYWSETLFQCNNCSLCLNGTVQISCQEKQNTICTCHAGFFLREHECVSCVNCKKNTECGKLCLPPVETVKVPQDPGSTPKRENGRVPRPPDCPKCPAPEMLGGPSVFIFPPKPKDTLLIARTPEVTCVVVDLDPEDPEVQISWFVDGKQMQTAKTQPREEQFNGTYRVVSVLPIGHQDWLKGKQFTCKVNNKALPSPIERTISKARGQAHQPSVYVLPPSREELSKNTVSLTCLIKDFYPPDIDVEWQSNGQQEPESKYRTTPPQLDEDGSYFLYSKLSVDKSRWQRGDTFICAVMHEALHNHYTQESLSHSPGK | no binding | ~1 ng/ml |
| canine TNFR-HCC (caTNFRp50:ca IgGHCC Fc), SEQ ID NO:8 (Fc fusion, Expressed in CHO cells; also called caTNFrecp60-HCC; canine TNFR-HCC fusion protein) LVPHPRNRVKRAILCPQGKYIHPQDDSICCTKCHKGTYLYNDCPGPGLDTDCRECENGTFTASENHLRQCLSCSKCRKEMNQVEISPCTVYRDTVCGCRKNQYRFYWSETLFQCNNCSLCLNGTVQISCQEKQNTICTCHAGFFLREHECVSCVNCKKNTECGKLCLPPVETVKVPQDPGSTAKECECKCNCNNCPCPGCGLLGGPSVFIFPPKPKDILVTARTPTVTCVVVDLDPENPEVQISWFVDSKQVQTANTQPREEQSNGTYRVVSVLPIGHQDWLSGKQFKCKVNNKALPSPIEEIISKTPGQAHQPNVYVLPPSRDEMSKNTVTLTCLVKDFFPPEIDVEWQSNGQQEPESKYRMTPPQLDEDGSYFLYSKLSVDKSRWQRGDTFICAVMHEALHNHYTQISLSHSPGK | no binding | ~1 ng/ml |
